Reference: PMC7921949
pKd: −log10 of the molar value.

Biological target: PD-L1 on CT26 murine colon cancer cells (mouse (CT26)) (UniProt Q9EP73)
Experiment: flow cytometry on CT26 cells
Conditions: apparent Kd on whole cells, PBS, room temperature, 30 min, 2x10^5 CT26 cells in 250 uL, three PBS washes, Y = Bmax X/(Kd + X), n = 2

Sequence of PD-L1 on CT26 murine colon cancer cells (mouse (CT26)) (Q9EP73 19-290): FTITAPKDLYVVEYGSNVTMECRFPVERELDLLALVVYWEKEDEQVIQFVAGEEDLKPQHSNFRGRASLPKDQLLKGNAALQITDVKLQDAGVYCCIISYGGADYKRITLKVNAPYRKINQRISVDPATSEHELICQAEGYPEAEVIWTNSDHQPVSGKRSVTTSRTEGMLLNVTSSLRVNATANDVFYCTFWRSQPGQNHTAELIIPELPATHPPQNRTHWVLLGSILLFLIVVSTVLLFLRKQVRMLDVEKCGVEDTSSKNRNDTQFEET

Sequence	pKd	pKd (tetravalent, first nt at 5' end of each strand phosphorothioate in some Apt-HJ, unclear for binding assay)
ACGGGCCACATCAACTCATTGATAGACAATGCGTCCACTGCCCGT [free PD-L1 aptamer (Apt)]	6.55	
CGGCGATCCGGCCATAGTGGATTGCGGGCCAGTGAAAAAAACGGGCCACATCAACTCATTGATAGACAATGCGTCCACTGCCCGT / CTCACTGGCCCGCAATCCTGAGCACGTGGCTGACGAAAAAACGGGCCACATCAACTCATTGATAGACAATGCGTCCACTGCCCGT / CCGTCAGCCACGTGCTCACCGAATGCTGCGCAACCAAAAAACGGGCCACATCAACTCATTGATAGACAATGCGTCCACTGCCCGT / CGGTTGCGCAGCATTCGGACTATGGCCGGATCGCCAAAAAACGGGCCACATCAACTCATTGATAGACAATGCGTCCACTGCCCGT [Apt-HJ (tetravalent aptamer Holliday junction)]		6.84
